The results in this text go back to patent US20260209386A1 (MYTHIC THERAPEUTICS, published 2026).

For assay [1], the target named is T1, Human PTK7 Protein, His Tag (Acro Biosystems) (human, UniProt Q13308 31-704).
T1 construct: Bought recombinant protein; also called CCK4; tyrosine-protein kinase-like 7; not shown: His tag
T1 sequence: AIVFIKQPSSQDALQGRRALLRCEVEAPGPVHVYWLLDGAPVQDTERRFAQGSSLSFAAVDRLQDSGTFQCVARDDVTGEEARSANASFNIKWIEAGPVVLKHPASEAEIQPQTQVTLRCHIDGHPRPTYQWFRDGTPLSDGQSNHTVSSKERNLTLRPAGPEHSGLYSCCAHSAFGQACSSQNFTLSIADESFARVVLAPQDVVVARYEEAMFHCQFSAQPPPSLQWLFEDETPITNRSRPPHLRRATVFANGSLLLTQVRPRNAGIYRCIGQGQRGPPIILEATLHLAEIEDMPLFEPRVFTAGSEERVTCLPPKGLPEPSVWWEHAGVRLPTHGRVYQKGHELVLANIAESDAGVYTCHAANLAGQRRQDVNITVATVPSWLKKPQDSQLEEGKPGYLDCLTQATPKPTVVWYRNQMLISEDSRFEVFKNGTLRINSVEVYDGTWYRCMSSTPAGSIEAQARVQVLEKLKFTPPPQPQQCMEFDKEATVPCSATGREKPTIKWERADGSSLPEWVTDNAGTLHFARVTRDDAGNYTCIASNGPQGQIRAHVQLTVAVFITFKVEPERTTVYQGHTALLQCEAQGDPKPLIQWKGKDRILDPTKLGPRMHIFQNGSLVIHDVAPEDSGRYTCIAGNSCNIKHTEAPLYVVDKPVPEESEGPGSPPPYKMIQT
Briefly: BLI, antibody on anti-human Fc sensor, 50 nM PTK7 at pH 7.4, dissociation at pH 7.4 or 5.4; 2 = substantially similar binding relative to parent. (Biolayer interferometry detects binding as a change in optical thickness at a sensor tip.)

In assay [2] the target is T2, Human PTK7 Protein, His Tag, Acro Biosystems (human, UniProt Q13308 31-704).
T2 construct: Bought protein; also called CCK4; not shown: His tag
T2 sequence: T1 sequence
Briefly: BLI (Octet), antibody on anti-human Fc sensor, 50 nM PTK7, dissociation at pH 7.4 or 5.4; 2 = substantially similar binding relative to parent.

Substitutions are numbered along the chain they refer to.

B1: MYT11341 (antibody, V domains shown)
VH: EVQLVESGGGLVQPGGSLRLSCTASGIHLSNYAVIWVRQAPGKGLEWVGIIYTYDTTYYANWAKGRFTISRDTSKNTVYLQMNSLRAEDTAVYFCARSFSDISDLIKLWGQGTLVTVSS
VL: EIVMTQSPSTLSASVGDRVIITCQASQSLYNNKDLAWYQQKPGKAPKLLIYEASKLASGVPSRFSGSGSGAEFTLTISSLQPDDFATYYCLGEFSCGSGDCLAFGQGTKLTVL
notes: MYT9797 HC variant; captured via anti-human Fc
Turning to B1, in assay [1], the binding result is “binds”.

B2: MYT11379 (antibody, V domains shown)
VH: B1 VH with H28A
VL: B1 VL
notes: MYT9797 HC alanine variant; captured via anti-human Fc
On to B2, for which the binding result in assay [1] is on record as “binds”.

B3: MYT11387 (antibody, V domains shown)
VH: B1 VH with H28D
VL: B1 VL with S28H
notes: MYT9797 LC variant; captured via anti-human Fc
For the molecule B3, the binding result in assay [1] is given as “binds”.

B4: MYT11364 (antibody, V domains shown)
VH: B1 VH with H28D, G65H
VL: B1 VL
notes: as for B1
For the molecule B4, the binding result in assay [1] is on record as “binds”.

B5: MYT11385 (antibody, V domains shown)
VH: B1 VH with H28D
VL: B1 VL with S26H
notes: as for B3
For the molecule B5, the binding result in assay [1] is “binds”.

B6: MYT11344 (antibody, V domains shown)
VH: B1 VH with H28D, N31H
VL: B1 VL
notes: as for B1
As for B6, the binding result in assay [1] is recorded as “binds”.

B7: MYT11391 (antibody, V domains shown)
VH: B1 VH with H28D
VL: B1 VL with N32H
notes: as for B3
B7: in assay [1], the binding result was “binds”.

B8: MYT11361 (antibody, V domains shown)
VH: B1 VH with H28D, W62H
VL: B1 VL
notes: as for B1
As to B8, the binding result in assay [1] is reported as “binds”.

B9: MYT11383 (antibody, V domains shown)
VH: B1 VH with H28D
VL: B1 VL with Q24H
notes: as for B3
On to B9, for which the binding result in assay [1] is “binds”.

B10: MYT11339 (antibody, V domains shown)
VH: B1 VH with G26H, H28D
VL: B1 VL
notes: as for B1
For the molecule B10, the binding result in assay [1] is reported as “binds”.

B11: MYT11362 (antibody, V domains shown)
VH: B1 VH with H28D, A63H
VL: B1 VL
notes: as for B1
B11: the binding result in assay [1] was “binds”.

B12: MYT11345 (antibody, V domains shown)
VH: B1 VH with H28D, Y32H
VL: B1 VL
notes: as for B1
Regarding B12, in assay [1], the binding result is “binds”.

B13: MYT11342 (antibody, V domains shown)
VH: B1 VH with H28D, L29H
VL: B1 VL
notes: as for B1
As to B13, in assay [1], the binding result was “binds”.

B14: MYT11340 (antibody, V domains shown)
VH: B1 VH with I27H, H28D
VL: B1 VL
notes: as for B1
For B14, in assay [1], the binding result is “binds”.

B15: MYT11366 (antibody, V domains shown)
VH: B1 VH with H28D, R97H
VL: B1 VL
notes: as for B1
Consider B15, for which the binding result in assay [1] is reported as “binds”.

B16: MYT11360 (antibody, V domains shown)
VH: B1 VH with H28D, N61H
VL: B1 VL
notes: as for B1
As for B16, the binding result in assay [1] is given as “binds”.

B17: MYT11359 (antibody, V domains shown)
VH: B1 VH with H28D, A60H
VL: B1 VL
notes: as for B1
Consider B17, for which the binding result in assay [1] is “binds”.

B18: MYT11368 (antibody, V domains shown)
VH: B1 VH with H28D, F99H
VL: B1 VL
notes: as for B1
As for B18, in assay [1], the binding result is given as “binds”.

B19: MYT11375 (antibody, V domains shown)
VH: B1 VH with H28D, I106H
VL: B1 VL
notes: as for B1
As to B19, in assay [1], the binding result is “binds”.

B20: MYT11348 (antibody, V domains shown)
VH: B1 VH with H28D, I35H
VL: B1 VL
notes: as for B1
B20: the binding result in assay [1] is on record as “binds”.

B21: MYT11386 (antibody, V domains shown)
VH: B1 VH with H28D
VL: B1 VL with Q27H
notes: as for B3
In the case of B21, the binding result in assay [1] is recorded as “binds”.

B22: MYT11347 (antibody, V domains shown)
VH: B1 VH with H28D, V34H
VL: B1 VL
notes: as for B1
B22: in assay [1], the binding result was “binds”.

B23: MYT11377 (antibody, V domains shown)
VH: B1 VH with H28D, L108H
VL: B1 VL
notes: as for B1
For B23, the binding result in assay [1] is “binds”.

B24: MYT11358 (antibody, V domains shown)
VH: B1 VH with H28D, Y59H
VL: B1 VL
notes: as for B1
For B24, the binding result in assay [1] was “binds”.

B25: MYT11350 (antibody, V domains shown)
VH: B1 VH with H28D, I51H
VL: B1 VL
notes: as for B1
In the case of B25, the binding result in assay [1] is given as “binds”.

B26: MYT11343 (antibody, V domains shown)
VH: B1 VH with H28D, S30H
VL: B1 VL
notes: as for B1
On to B26, for which, in assay [1], the binding result is recorded as “binds”.

B27: MYT11231 (antibody, V domains shown)
VH: EVQLVESGGGLVQPGGSLRLSCTASGIDLSSYVMGWVRQAPGKGLEWVGYIYGGGGTYYATWARGRFTISRDTSKNTVYLQMNSLRAEDTAVYFCARAAADFYFNLWGQGTLVTVSS
VL: EIVMTQSPSTLSASVGDRVIITCQASQSISSYLAWYQQKPGKAPKLLIYHISDLASGVPSRFSGSGSGAEFTLTISSLQPDDFATYYCQSYYWISNSGAAFGQGTKLTVL
notes: LC variant of MYT9460, sub at LCV pos 50 (L2 01)
For B27, the binding result in assay [2] was “binds”.

B28: MYT11239 (antibody, V domains shown)
VH: B27 VH
VL: B27 VL with H50D, S90H
notes: LC variant of MYT9460, sub at LCV pos 90 (L3 02)
In the case of B28, in assay [2], the binding result is given as “binds”.

B29: MYT11237 (antibody, V domains shown)
VH: B27 VH
VL: B27 VL with H50D, S56H
notes: LC variant of MYT9460, sub at LCV pos 56 (L2 07)
As for B29, the binding result in assay [2] was “binds”.

B30: MYT11252 (antibody, V domains shown)
VH: B27 VH
VL: B27 VL with H50D, D53A
notes: LC variant of MYT9460, Ala sub at LCV pos 53 (L2 04)
Regarding B30, the binding result in assay [2] is given as “binds”.

B31: MYT11235 (antibody, V domains shown)
VH: B27 VH
VL: B27 VL with H50D, L54H
notes: LC variant of MYT9460, sub at LCV pos 54 (L2 05)
Consider B31, for which, in assay [2], the binding result is on record as “binds”.

B32: MYT11241 (antibody, V domains shown)
VH: B27 VH
VL: B27 VL with H50D, Y92H
notes: LC variant of MYT9460, sub at LCV pos 92 (L3 04)
In the case of B32, in assay [2], the binding result was “binds”.

B33: MYT11234 (antibody, V domains shown)
VH: B27 VH
VL: B27 VL with H50D, D53H
notes: LC variant of MYT9460, sub at LCV pos 53 (L2 04)
For the molecule B33, in assay [2], the binding result is recorded as “binds”.

B34: MYT11242 (antibody, V domains shown)
VH: B27 VH
VL: B27 VL with H50D, W93H
notes: LC variant of MYT9460, sub at LCV pos 93 (L3 05)
Regarding B34, the binding result in assay [2] is given as “binds”.

B35: MYT11233 (antibody, V domains shown)
VH: B27 VH
VL: B27 VL with H50D, S52H
notes: LC variant of MYT9460, sub at LCV pos 52 (L2 03)
Take B35: in assay [2], the binding result is on record as “binds”.

B36: MYT11251 (antibody, V domains shown)
VH: B27 VH
VL: B27 VL with H50A
notes: LC variant of MYT9460, Ala sub at LCV pos 50 (L2 01)
With B36, the binding result in assay [2] is listed as “binds”.
